In IntAct's records for PubMed 20558380:

B1: Vang-like protein 2 (Homo sapiens), Q9ULK5 (parent)
chain: MDTESQYSGYSYKSGHSRSSRKHRDRRDRHRSKSRDGGRGDKSVTIQAPGEPLLDNESTRGDERDDNWGETTTVVTGTSEHSISHDDLTRIAKDMEDSVPLDCSRHLGVAAGATLALLSFLTPLAFLLLPPLLWREELEPCGTACEGLFISVAFKLLILLLGSWALFFRRPKASLPRVFVLRALLMVLVFLLVVSYWLFYGVRILDARERSYQGVVQFAVSLVDALLFVHYLAVVLLELRQLQPQFTLKVVRSTDGASRFYNVGHLSIQRVAVWILEKYYHDFPVYNPALLNLPKSVLAKKVSGFKVYSLGEENSTNNSTGQSRAVIAAAARRRDNSHNEYYYEEAEHERRVRKRRARLVVAVEEAFTHIKRLQEEEQKNPREVMDPREAAQAIFASMARAMQKYLRTTKQQPYHTMESILQHLEFCITHDMTPKAFLERYLAAGPTIQYHKERWLAKQWTLVSEEPVTNGLKDGIVFLLKRQDFSLVVSTKKVPFFKLSEEFVDPKSHKFVMRLQSETSV
partner: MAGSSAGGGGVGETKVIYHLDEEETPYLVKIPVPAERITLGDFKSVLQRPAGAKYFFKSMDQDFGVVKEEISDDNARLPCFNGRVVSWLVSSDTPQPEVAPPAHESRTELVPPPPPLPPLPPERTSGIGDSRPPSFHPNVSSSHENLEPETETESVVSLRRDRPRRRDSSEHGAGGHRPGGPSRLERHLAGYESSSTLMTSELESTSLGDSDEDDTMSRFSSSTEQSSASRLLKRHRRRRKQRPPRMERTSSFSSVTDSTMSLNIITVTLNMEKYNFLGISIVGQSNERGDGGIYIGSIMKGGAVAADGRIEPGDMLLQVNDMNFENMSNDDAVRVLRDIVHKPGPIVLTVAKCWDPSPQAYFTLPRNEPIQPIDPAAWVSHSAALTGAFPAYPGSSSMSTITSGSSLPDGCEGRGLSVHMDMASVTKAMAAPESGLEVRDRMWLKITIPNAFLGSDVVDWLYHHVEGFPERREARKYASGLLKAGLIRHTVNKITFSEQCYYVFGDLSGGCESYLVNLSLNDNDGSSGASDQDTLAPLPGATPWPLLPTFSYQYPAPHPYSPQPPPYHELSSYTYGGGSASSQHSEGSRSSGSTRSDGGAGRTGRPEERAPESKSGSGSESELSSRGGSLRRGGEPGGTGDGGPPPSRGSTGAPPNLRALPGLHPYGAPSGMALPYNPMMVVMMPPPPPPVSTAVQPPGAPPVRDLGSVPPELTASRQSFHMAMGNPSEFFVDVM
B2: Vang-like protein 2 (Homo sapiens), Q9ULK5 (parent)
chain: B1 chain
partner: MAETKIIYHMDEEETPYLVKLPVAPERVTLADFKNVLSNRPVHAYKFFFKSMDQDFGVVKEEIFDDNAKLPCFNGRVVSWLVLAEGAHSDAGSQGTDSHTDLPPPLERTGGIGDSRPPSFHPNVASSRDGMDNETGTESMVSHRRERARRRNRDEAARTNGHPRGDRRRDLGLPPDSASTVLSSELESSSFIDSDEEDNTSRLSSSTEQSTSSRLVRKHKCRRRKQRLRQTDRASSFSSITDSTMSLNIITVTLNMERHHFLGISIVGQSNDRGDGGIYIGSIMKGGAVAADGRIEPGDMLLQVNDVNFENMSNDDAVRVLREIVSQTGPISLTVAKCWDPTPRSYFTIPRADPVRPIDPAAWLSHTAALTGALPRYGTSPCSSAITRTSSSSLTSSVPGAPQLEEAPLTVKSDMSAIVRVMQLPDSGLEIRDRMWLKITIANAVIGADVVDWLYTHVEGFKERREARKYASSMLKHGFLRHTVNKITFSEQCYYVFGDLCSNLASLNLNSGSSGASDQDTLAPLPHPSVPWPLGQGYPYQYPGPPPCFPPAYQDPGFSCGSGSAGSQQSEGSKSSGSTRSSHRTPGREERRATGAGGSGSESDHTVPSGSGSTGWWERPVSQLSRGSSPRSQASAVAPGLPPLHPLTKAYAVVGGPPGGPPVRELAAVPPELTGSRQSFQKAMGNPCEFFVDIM

Variants of: B1
Conditions: with dvl2_mouse Dvl2, Q60838

| effect of a mutation on the interaction | Variant |
| --- | --- |
| disrupting interaction | MDTESQYSGYSYKSGHSRSSRKHRDRRDRHRSKSRDGGRGDKSVTIQAPGEPLLDNESTRGDERDDNWGETTTVVTGTSEHSISHDDLTRIAKDMEDSVPLDCSRHLGVAAGATLALLSFLTPLAFLLLPPLLWREELEPCGTACEGLFISVAFKLLILLLGSWALFFRRPKASLPRVFVLRALLMVLVFLLVVSYWLFYGVRILDARERSYQGVVQFAVSLVDALLFVHYLAVVLLELRQLQPQFTLKVVRSTEGASRFYNVGHLSIQRVAVWILEKYYHDFPVYNPALLNLPKSVLAKKVSGFKVYSLGEENSTNNSTGQSRAVIAAAARRRDNSHNEYYYEEAEHERRVRKRRARLVVAVEEAFTHIKRLQEEEQKNPREVMDPREAAQAIFASMARAMQKYLRTTKQQPYHTMESILQHLEFCITHDMTPKAFLERYLAAGPTIQYHKERWLAKQWTLVSEEPVTNGLKDGIVFLLKRQDFSLVVSTKKVPFFKLSEEFVDPKSHKFVMRLQSETSV [D255E] |
| decreasing interaction | MDTESQYSGYSYKSGHSRSSRKHRDRRDRHRSKSRDGGRGDKSVTIQAPGEPLLDNESTRGDERDDNWGETTTVVTGTSEHSISHDDLTRIAKDMEDSVPLDCSRHLGVAAGATLALLSFLTPLAFLLLPPLLWREELEPCGTACEGLFISVAFKLLILLLGSWALFFRRPKASLPRVFVLRALLMVLVFLLVVSYWLFYGVRILDARERSYQGVVQFAVSLVDALLFVHYLAVVLLELRQLQPQFTLKVVRSTDGASRFYNVGHLSIQRVAVWILEKYYHDFPVYNPALLNLPKSVLAKKVSGFKVYSLGEENSTNNSTGQSRAVIAAAARRRDNSHNEYYYEEAEHERRVCKRRARLVVAVEEAFTHIKRLQEEEQKNPREVMDPREAAQAIFASMARAMQKYLRTTKQQPYHTMESILQHLEFCITHDMTPKAFLERYLAAGPTIQYHKERWLAKQWTLVSEEPVTNGLKDGIVFLLKRQDFSLVVSTKKVPFFKLSEEFVDPKSHKFVMRLQSETSV [R353C] |

Variants of: B2
Conditions: with dvl1_mouse Dvl1, P51141

| effect of a mutation on the interaction | Variant |
| --- | --- |
| disrupting interaction | MDTESQYSGYSYKSGHSRSSRKHRDRRDRHRSKSRDGGRGDKSVTIQAPGEPLLDNESTRGDERDDNWGETTTVVTGTSEHSISHDDLTRIAKDMEDSVPLDCSRHLGVAAGATLALLSFLTPLAFLLLPPLLWREELEPCGTACEGLFISVAFKLLILLLGSWALFFRRPKASLPRVFVLRALLMVLVFLLVVSYWLFYGVRILDARERSYQGVVQFAVSLVDALLFVHYLAVVLLELRQLQPQFTLKVVRSTEGASRFYNVGHLSIQRVAVWILEKYYHDFPVYNPALLNLPKSVLAKKVSGFKVYSLGEENSTNNSTGQSRAVIAAAARRRDNSHNEYYYEEAEHERRVRKRRARLVVAVEEAFTHIKRLQEEEQKNPREVMDPREAAQAIFASMARAMQKYLRTTKQQPYHTMESILQHLEFCITHDMTPKAFLERYLAAGPTIQYHKERWLAKQWTLVSEEPVTNGLKDGIVFLLKRQDFSLVVSTKKVPFFKLSEEFVDPKSHKFVMRLQSETSV [D255E] |
| decreasing interaction | MDTESQYSGYSYKSGHSRSSRKHRDRRDRHRSKSRDGGRGDKSVTIQAPGEPLLDNESTRGDERDDNWGETTTVVTGTSEHSISHDDLTRIAKDMEDSVPLDCSRHLGVAAGATLALLSFLTPLAFLLLPPLLWREELEPCGTACEGLFISVAFKLLILLLGSWALFFRRPKASLPRVFVLRALLMVLVFLLVVSYWLFYGVRILDARERSYQGVVQFAVSLVDALLFVHYLAVVLLELRQLQPQFTLKVVRSTDGASRFYNVGHLSIQRVAVWILEKYYHDFPVYNPALLNLPKSVLAKKVSGFKVYSLGEENSTNNSTGQSRAVIAAAARRRDNSHNEYYYEEAEHERRVCKRRARLVVAVEEAFTHIKRLQEEEQKNPREVMDPREAAQAIFASMARAMQKYLRTTKQQPYHTMESILQHLEFCITHDMTPKAFLERYLAAGPTIQYHKERWLAKQWTLVSEEPVTNGLKDGIVFLLKRQDFSLVVSTKKVPFFKLSEEFVDPKSHKFVMRLQSETSV [R353C] |
| disrupting interaction | MDTESQYSGYSYKSGHSRSSRKHRDRRDRHRSKSRDGGRGDKSVTIQAPGEPLLDNESTRGDERDDNWGETTTVVTGTSEHSISHDDLTRIAKDMEDSVPLDCSRHLGVAAGATLALLSFLTPLAFLLLPPLLWREELEPCGTACEGLFISVAFKLLILLLGSWALFFRRPKASLPRVFVLRALLMVLVFLLVVSYWLFYGVRILDARERSYQGVVQFAVSLVDALLFVHYLAVVLLELRQLQPQFTLKVVRSTDGASRFYNVGHLSIQRVAVWILEKYYHDFPVYNPALLNLPKSVLAKKVSGFKVYSLGEENSTNNSTGQSRAVIAAAARRRDNSHNEYYYEEAEHERRVRKRRARLVVAVEEAFTHIKRLQEEEQKNPREVMDPREAAQAIFASMARAMQKYLRTTKQQPYHTMESILQHLEFCITHDMTPKAFLERYLAAGPTIQYHKERWLAKQWTLVNEEPVTNGLKDGIVFLLKRQDFSLVVSTKKVPFFKLSEEFVDPKSHKFVMRLQSETSV [S464N] |
| disrupting interaction | MDTESQYSGYSYKSGHSRSSRKHRDRRDRHRSKSRDGGRGDKSVTIQAPGEPLLDNESTRGDERDDNWGETTTVVTGTSEHSISHDDLTRIAKDMEDSVPLDCSRHLGVAAGATLALLSFLTPLAFLLLPPLLWREELEPCGTACEGLFISVAFKLLILLLGSWALFFRRPKASLPRVFVLRALLMVLVFLLVVSYWLFYGVRILDARERSYQGVVQFAVSLVDALLFVHYLAVVLLELRQLQPQFTLKVVRSTDGASRFYNVGHLSIQRVAVWILEKYYHDFPVYNPALLNLPKSVLAKKVSGFKVYSLGEENSTNNSTGQSRAVIAAAARRRDNSHNEYYYEEAEHERRVRKRRARLVVAVEEAFTHIKRLQEEEQKNPREVMDPREAAQAIFASMARAMQKYLRTTKQQPYHTMESILQHLEFCITHDMTPKASLERYLAAGPTIQYHKERWLAKQWTLVSEEPVTNGLKDGIVFLLKRQDFSLVVSTKKVPFFKLSEEFVDPKSHKFVMRLQSETSV [F437S] |
